Assay results published in the supplement of paper PMC10567573.

B1: MMP1 (parent)
chain: MFFKDRFYMRTNPFYPEVELNFIS

Variants of: B1
Assay: protein stability index of a GFP-peptide fusion (GPS, HEK-293T) (PSI 1-6); higher = more stable
Settings: c terminus: a fixed tail appended
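Further: lentivirally expressed fusions sorted by FACS into six bins by GFP to DsRed ratio, PSI derived from sequencing read proportions per bin multiplied by bin number.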

Protein stability index: each site, then its substitutions
P16: W 2.44; Y 2.82; V 3.21; M 1.74; L 1.75; Q 3.75; G 3.15; R 1.98; C 2.71; T 3.07; S 2.96; F 2.88; I 3.59; N 3.95; E 3.49; H 2.95; D 2.18; K 2.25
T11: L 2.72; S 2.32; V 4.1; P 3.77; M 3.47; K 3.17; D 3.5; R 2.28; W 3.68; G 2.64; C 3.79; E 3.11; A 3.18; N 2.96; I 1.63; H 1.78; Q 2.59
R6: L 2.39; M 2.35; F 2.48; T 3.77; K 3.46; E 2.85; V 3.16; Q 3.4; N 2.96; G 3.07; W 2.14; C 2.09; I 3.27; H 3.05; S 2.64; Y 3.35
Y8: F 2.64; M 2.89; V 3.2; C 3.33; Q 2.87; N 2.17; W 2.96; E 1.89; K 1.99; I 2.73; H 2.22; S 3.33; A 2.69; G 2.07; D 2.43; R 2.98; T 2.23; P 2.98
M9: Y 3.12; L 1.86; R 2.1; H 1.83; P 1.93; W 3.91; E 1.93; G 3.71; F 2.56; T 2.76; D 1.75; S 3.67; C 3.4; V 2.71; I 2.02; K 2.59; Q 2.65; A 1.27
L20: C 3.04; S 2.35; T 1.85; I 3.27; K 3.34; D 2.28; P 1.99; R 2.25; H 2.98; A 2.27; F 3.19; N 2.06; V 2.11; G 1.59; W 3.09; Q 1.36; E 3.27
F7: H 2.13; C 2.32; Y 1.96; K 2.45; Q 2.06; R 3.28; D 1.91; N 1.31; W 3.2; L 3.36; P 3.98; A 3.4; E 3.35; V 4.52; M 2.98
E19: A 3.48; Y 3.1; P 3.53; G 3.69; I 3.25; K 4.43; N 3.6; C 3.18; L 2.64; V 2.27; H 3.47; S 2.61; F 3.27; D 2.34; Q 2.3; W 1.3; T 2.44; M 1.47
F14: A 3.69; C 2.65; Q 2.58; H 2.82; K 3.31; Y 2.96; D 3.86; L 2.62; I 2.54; N 2.87; T 2.33; R 3.1; M 1.73; G 2.92; E 3.46; V 3.62
F22: A 2.48; C 2.19; R 2.69; S 1.67; L 3.27; P 2.18; Y 2.94; T 1.65; D 1.31; K 1.83; E 2.38; N 2.15; V 2.92; I 3.29; M 2.32; H 2.16; Q 1.9; G 2.22; W 2.09
N12: E 4.11; T 2.56; P 3.4; Y 3.12; I 2; M 2.94; F 3.09; W 3; G 2.91; Q 2.67; D 3.11; K 3.17; H 2.87; S 2.74; R 3.81; L 2.51; C 3.02; V 2.43
P13: C 2.68; S 1.94; M 2.66; D 3.62; W 3.9; A 2.38; L 2.37; Y 2.35; K 2.58; R 3.31; H 2.46; I 2.85; V 3.62; N 2.29; Q 1.76; G 2.62
I23: D 2.65; H 1.76; N 1.53; M 3.28; S 2.63; T 1.56; E 2.33; V 3.61; W 3.27; Y 1.75; K 2.16; F 2.41; P 3.27; C 2.81; L 3.31; A 2.47; R 3.09; G 1.67; Q 2.34
S24: V 3.21; K 2.83; E 2.3; D 2.77; G 2.88; F 3.13; Q 2.87; N 2.88; H 2.68; C 2.33; P 3.07; M 2.75; R 2.05; A 2.44; L 4.01; T 3.07
N21: M 1.94; K 1.96; H 2.76; D 3.07; F 2.33; C 3.71; Q 3.29; V 2.67; R 2.74; G 4.41; A 2.56; T 3.97; L 3; P 2.26; S 2.91; W 2.85; I 3.34; Y 3.15
V18: F 2.61; Y 2.64; T 3.87; R 1.87; W 3.22; I 2.84; E 3.27; H 3.06; D 2.66; G 2.08; A 3.25; L 2.41; P 3.06; M 2.52; Q 2.35; S 3.28; C 2.99; K 3.54; N 1.78
R10: P 2.77; T 2.47; Y 2.63; C 3.2; A 1.52; N 3.09; D 2.14; Q 2.17; G 2.73; L 2.79; E 2.37; M 2.88; S 3.42; V 3; K 2.74; H 2.42; W 2.82
Y15: C 3.47; G 2.09; N 2.94; F 2.63; K 2.72; T 2.43; H 2.19; V 2.37; M 1.97; Q 1.34; E 2.15; A 1.72; R 2.66; D 3.35; L 3.33; S 2.69; I 3.09; W 2.93; P 2.4
E17: W 3.19; L 2.55; H 3.02; K 2.21; A 2.9; D 1.97; P 1.8; I 3.71; V 2.99; F 2.19; S 2.15; T 1.84; C 4.42; M 2.78; G 2.52; Y 2.42; R 2.57; N 3.69
D5: Y 2.38; W 1.94
